PMC8770391 (Biosensors & Bioelectronics, 2022)
Substitutions are numbered along the chain they refer to.

B1: detection antibody against the SARS-CoV-2 antigen (antibody, V domains shown)
VH: EVQLVESGGGLVQPGGSLRLSCAASGFTFSTYAMSWVRQAPGKGLEWVSGITGSGGATDYADSVKGRFTISRDNSKNTLYLQMNSLRAEDTAVYYCARINYRAVWGMDYWGQGTLVTVSS
VL: DIQMTQSPSSLSASVGDRVTITCRASQNVSSYLAWYQQKPGKAPKLLIYGASNLASGVPSRFSGSGSGTDFTLTISSLQPEDFATYYCQQGANAPLTFGQGTKVETK
B2: reporter antibody against the SARS-CoV-2 antigen (antibody, V domains shown)
VH: EVQLVESGGGLVQPGGSLRLSCAASGFTFANNAMSWVRQAPGKGLEWVSGINGYDGDTYYADSVKGRFTISRDNSKNTLYLQMNSLRAEDTAVYYCARTYYSYAMDYWGQGTLVTVSS
VL: B1 VL with V29I, G50W, N93Q, A94I, T106I

Molecular target: SARS-CoV-2 antigen (nucleocapsid protein) (SARS-CoV-2; strain of the recombinant …, UniProt P0DTC9)
Assay: ELISA

Binder	Kd [pM]
B1	660
B2	690
